The values below come from PMC10517016, “SCARB2 drives hepatocellular carcinoma tumor initiating cells via enhanced MYC transcriptional activity” (Nature Communications, 2023).

This experiment concerns the target T1, Purified His-tagged MYC (UniProt P01106 1-454).
T1 construct: MYC, purified recombinant protein bought from Origene; also called MYC (TP760019); source: bought: Origene (TP760019), purified
The experiment in a line: co-IP; in vitro: 5 ug of each purified protein mixed in 100 ul of 1% NP-40, 120 mM NaCl, 40 mM tris-HCl pH 7.4, 1.5 mM sodium orthovanadate, 50 mM sodium fluoride, 10 mM sodium pyrophosphate, protease inhibitors, 6 h at 4 °C, then immunoprecipitation. The settings on record: both partners purified.

T1 sequence (P01106 whole entry): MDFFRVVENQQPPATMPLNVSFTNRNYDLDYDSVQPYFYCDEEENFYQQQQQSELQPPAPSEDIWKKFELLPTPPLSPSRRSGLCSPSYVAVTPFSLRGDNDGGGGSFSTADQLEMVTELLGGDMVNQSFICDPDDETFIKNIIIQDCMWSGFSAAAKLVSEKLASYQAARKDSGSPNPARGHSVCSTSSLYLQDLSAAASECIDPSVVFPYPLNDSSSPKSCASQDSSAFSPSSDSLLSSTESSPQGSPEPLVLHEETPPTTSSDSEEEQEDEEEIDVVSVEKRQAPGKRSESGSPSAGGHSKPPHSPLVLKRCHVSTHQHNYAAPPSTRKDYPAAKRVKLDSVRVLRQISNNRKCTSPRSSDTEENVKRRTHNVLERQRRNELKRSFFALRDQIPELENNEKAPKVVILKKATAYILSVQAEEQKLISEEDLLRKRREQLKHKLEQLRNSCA

B1: Purified GST-tagged HDAC3 (enzyme, UniProt O15379 1-428, looked up)
chain: MAKTVAYFYDPDVGNFHYGAGHPMKPHRLALTHSLVLHYGLYKKMIVFKPYQASQHDMCRFHSEDYIDFLQRVSPTNMQGFTKSLNAFNVGDDCPVFPGLFEFCSRYTGASLQGATQLNNKICDIAINWAGGLHHAKKFEASGFCYVNDIVIGILELLKYHPRVLYIDIDIHHGDGVQEAFYLTDRVMTVSFHKYGNYFFPGTGDMYEVGAESGRYYCLNVPLRDGIDDQSYKHLFQPVINQVVDFYQPTCIVLQCGADSLGCDRLGCFNLSIRGHGECVEYVKSFNIPLLVLGGGGYTVRNVARCWTYETSLLVEEAISEELPYSEYFEYFAPDFTLHPDVSTRIENQNSRQYLDQIRQTIFENLKMLNHAPSVQIHDVPADLLTYDRTDEADAEERGPEENYSRPEAPNEFYDGDHDNDKESDVEI
notes: Histone deacetylase 3, purified recombinant protein bought from Sino Biological; also called HDAC3 (11511-H20B); source: bought: Sino Biological (11511-H20B), purified
Regarding B1, the binding result is “binds”.
